These results are taken from patent publication US20260184814A1 (priority 2022, published 2026).

One series can be described thus: FIG. 50B. On the set-up: CLEARANCE (μg/ml): unit not given here.
For the next series, the system named is N9 from A/Anhui/1/2013. In kind it is binding.
Series [1] addresses group I (H1N1) IAV, group II (H3N2) IAV, and IBV NAs. In kind it is biochemical, influenza A virus, influenza B virus.
For series [2], the system named is pseudovirus-derived neuraminidase. In kind it is biochemical, influenza A virus.
A further series deals with N1 and N2 neuraminidases. Format: biochemical, influenza A virus.
The target of another series is IAV and IBV NA antigens. In kind it is binding, influenza A virus, influenza B virus.
Series [3] has as its system BNA7 from B/Perth/211/2011.

In general, AUC refers to concentration integrated over time. What is called Vz is a proportionality between amount in the body and measured concentration, not a real space. Take FNI9-LS: in “FIG. 50B”, the exposure (AUC) is 527.46 ± 75.92 µg·days/mL, the “CLEARANCE (μg/ml)” value is on record as 1.47 ± 0.19 and the “HALF-LIFE” value was found to be 13.37 ± 1.52 days. Also, in “FIG. 32”, the “AUCLAST” value was determined as 254.583 µg·days/mL, the “CLss” value turned out to be 1.944 mL/day, the “HALF-LIFE” value stood at 14.198 days and the “LAMBDA_Z” value was determined as 0.05 day⁻¹. In the series “FIG. 32”, the “Vz” value is 40.281 mL.
Turning to “FNI9-v8.1: FNI9 variant with S28T in VH; VH SEQ ID NO:54, VL SEQ ID NO:8”, in the series with N9 from A/Anhui/1/2013, the “binding to N9_A_Anhui_2013, assessed by flow cytometry” value was “binds more strongly”. Also, the “in vitro inhibition of sialidase activity (reported as IC50)” value in series [1] is recorded as “improved”. Also, the “IC50 for inhibiting sialidase activity in an ELLA assay” value in series [2] is recorded as “lower IC50”. Besides, on N1 and N2 neuraminidases, the “IC50 for inhibiting sialidase activity in a MUNANA assay” value was “lower IC50”. Moreover, the “affinity by surface plasmon resonance” value on IAV and IBV NA antigens is listed as “higher affinity”.
As a reminder, the IC50 is the midpoint of a concentration-inhibition curve. In series [3], FNI9 had a concentration for half-maximal inhibition (IC50) of 23.209 mg/mL.
